Results published in US20250258178A1 (SHIONOGI, published 2025).

T1: human histidine-rich glycoprotein (HRG), purified from human plasma (human, UniProt P04196 19-525)
T1 construct: also called human purified HRG; human purified HRG protein
T1 sequence: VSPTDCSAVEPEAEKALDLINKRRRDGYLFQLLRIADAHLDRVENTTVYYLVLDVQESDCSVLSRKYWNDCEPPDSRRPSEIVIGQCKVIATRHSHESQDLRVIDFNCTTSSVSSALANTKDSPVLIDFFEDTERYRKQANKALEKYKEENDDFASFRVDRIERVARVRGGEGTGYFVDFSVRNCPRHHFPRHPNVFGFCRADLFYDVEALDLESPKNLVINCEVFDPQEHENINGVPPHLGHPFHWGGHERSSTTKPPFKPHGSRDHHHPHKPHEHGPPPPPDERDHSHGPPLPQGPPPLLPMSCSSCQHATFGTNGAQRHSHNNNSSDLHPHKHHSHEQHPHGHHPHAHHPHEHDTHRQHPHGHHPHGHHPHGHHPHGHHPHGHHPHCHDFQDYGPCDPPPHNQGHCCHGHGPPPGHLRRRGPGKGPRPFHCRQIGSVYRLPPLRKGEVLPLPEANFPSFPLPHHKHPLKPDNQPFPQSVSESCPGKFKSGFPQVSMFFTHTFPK

B1: anti-HRG monoclonal antibody 69-1A (antibody, V domains shown)
VH: EVKLEESGGGLVQPGGSMKLSCAASGFTFSDAWMDWVRQSPEKGLEWVAEIRSKANNHGTYYAESVKGRFTISRDDSKSSVYLRMNSLSAEDTGIYYCTRPFAYWGQGTLVTVSA
VL: DVVVTQTPLSLPVSLGDQASISCRSSQSLVHIDGNTYFHWYVQKPGQSPKLLIYKVSNRFSGVPDRFSGSGSGTDFTLKISRVEAEDLGVYFCSQSTHVPLTFGAGTKLELK
notes: Mouse hybridoma monoclonal; also called clone No. 69-1A
B2: anti-HRG monoclonal antibody 75-2D (antibody, V domains shown)
VH: QVQLQQSGAELMKPGASVKISCKATGYTFSSYWIEWVKQRPGHGLEWIGEILPGSGRTNYNEKFKGKATFTADTSSNTAYMQLSSLTSEDSAVYYCARYSYFYYFDYWGQGTTLTVSS
VL: DNVLTQSPAIMSASLGERVTMTCTASSSVSSSYLHWYQQKPGSSPKLWIYSTSNLASGVPARFSGSGSGTSYSLTISSMEAEDAATYYCHQYHRSPWTFGGGTKLEIK
notes: Mouse hybridoma monoclonal; also called clone No. 75-2D

Key:
[1] = molecular target: T1, human histidine-rich glycoprotein …; experiment: sandwich ELISA, HRG captured by solid phase 3-4E
Procedure: (§1) The capture antibody solution was dispensed at 25 μL per well into 384-well Maxisorp plates (NUNC), and the plates were incubated at room temperature for 3 hours. The plates were washed twice with 120 μL of washing solution per well (0.05% Tween 20-containing PBS). A blocking solution (1% BSA-containing PBS) was dispensed at 30 μL per well, and the plates were incubated at room temperature for 3 hours. The blocking solution was removed followed by dispensing the standard substance for evaluation at 20 μL per well (n=2), and the plates were incubated at room temperature for 3 hours. After washing the plates four times with the washing solution as described above, the solution of each detector antibody was dispensed at 10 μL per well, followed by dispensing a horseradish peroxidase-streptavidin solution (0.05 μg/mL) at 10 μL per well, and the plates were incubated at room temperature for 1 hour. After washing the plates four times with the washing solution as described above, a chromogenic substrate solution (TMB (3,3′,5,5′-tetramethylbenzidine)) was dispensed at 20 μL per well followed by incubating the plates at room temperature for 10 minutes, then a reaction stop solution 0.5 M H₂SO₄ was added at 20 μL/well, and the absorbance at 450 nm was measured.
(§2) The results regarding the evaluation of combinations chosen from 21 types of anti-HRG monoclonal antibodies are shown in Table 1. In Table 1, the absorbance at a wavelength of 450 nm of each combination was determined as follows: less than 1.0 OD: −, 1.0 OD or more and less than 2.0 OD: +, 2.0 OD or more and less than 3.0 OD: ++, and 3.0 OD or more: +++. The combinations of antibodies which could construct a sandwich ELISA system having enough level of absorbance change were 86 sets evaluated as ++ or +++ in Table 1.

[2] = molecular target: T1, human histidine-rich glycoprotein …; experiment: sandwich ELISA, HRG captured by solid phase 13-2G
Procedure: as §1, §2

[3] = molecular target: T1, human histidine-rich glycoprotein …; experiment: sandwich ELISA, HRG captured by solid phase 19-1C
Procedure: as §1, §2

[4] = molecular target: T1, human histidine-rich glycoprotein …; experiment: sandwich ELISA, HRG captured by solid phase 31-1H
Procedure: as §1, §2

[5] = molecular target: T1, human histidine-rich glycoprotein …; experiment: sandwich ELISA, HRG captured by solid phase 32-4C
Procedure: as §1, §2

[6] = molecular target: T1, human histidine-rich glycoprotein …; experiment: sandwich ELISA, HRG captured by solid phase 58-5C
Procedure: as §1, §2

[7] = molecular target: T1, human histidine-rich glycoprotein …; experiment: sandwich ELISA, HRG captured by solid phase 65-3A
Procedure: as §1, §2

[8] = molecular target: T1, human histidine-rich glycoprotein …; experiment: sandwich ELISA, HRG captured by solid phase 69-1A
Procedure: as §1, §2

[9] = molecular target: T1, human histidine-rich glycoprotein …; experiment: sandwich ELISA, HRG captured by solid phase 81-2C
Procedure: as §1, §2

[10] = molecular target: T1, human histidine-rich glycoprotein …; experiment: sandwich ELISA, HRG captured by solid phase 88-2E
Procedure: as §1, §2

[11] = molecular target: T1, human histidine-rich glycoprotein …; experiment: sandwich ELISA, HRG captured by solid phase 93-4C
Procedure: as §1, §2

[12] = molecular target: T1, human histidine-rich glycoprotein …; experiment: sandwich ELISA, HRG captured by solid phase 40-10G
Procedure: as §1, §2

[13] = molecular target: T1, human histidine-rich glycoprotein …; experiment: sandwich ELISA, HRG captured by solid phase 42-10D
Procedure: as §1, §2

[14] = molecular target: T1, human histidine-rich glycoprotein …; experiment: sandwich ELISA, HRG captured by solid phase 50-6C-2A
Procedure: as §1, §2

[15] = molecular target: T1, human histidine-rich glycoprotein …; experiment: sandwich ELISA, HRG captured by solid phase 67-8A-5F
Procedure: as §1, §2

[16] = molecular target: T1, human histidine-rich glycoprotein …; experiment: sandwich ELISA, HRG captured by solid phase 35-3G-10C
Procedure: as §1, §2

[17] = molecular target: T1, human histidine-rich glycoprotein …; experiment: sandwich ELISA, HRG captured by solid phase 94-7A-3C-3D
Procedure: as §1, §2

[18] = molecular target: T1, human histidine-rich glycoprotein …; experiment: sandwich ELISA, HRG captured by solid phase 6-12A-10B-9G
Procedure: as §1, §2

Binder	absorbance at 450 nm [3] [OD]	absorbance at 450 nm [4] [OD]	absorbance at 450 nm [5] [OD]	absorbance at 450 nm [8] [OD]	absorbance at 450 nm [9] [OD]	absorbance at 450 nm [10] [OD]	absorbance at 450 nm (OD450) [11] [od]	absorbance at 450 nm [16] [OD]	absorbance at 450 nm [17] [OD]	absorbance at 450 nm (OD450) [18] [od]	further results
B1	< 1	< 1	< 1	< 1	< 1	< 1	1 to 2	< 1	< 1	2 to 3	absorbance at 450 nm (OD450) [1]: ≥ 3 od; absorbance at 450 nm [2]: < 1 OD; absorbance at 450 nm (OD450) [6]: 1 to 2 od; absorbance at 450 nm [7]: < 1 OD; absorbance at 450 nm (OD450) [12]: 1 to 2 od; absorbance at 450 nm [13]: < 1 OD; absorbance at 450 nm [14]: < 1 OD; absorbance at 450 nm [15]: < 1 OD
B2	< 1	< 1	< 1	< 1	< 1	< 1	1 to 2	< 1	< 1	≥ 3	absorbance at 450 nm [1]: < 1 OD; absorbance at 450 nm (OD450) [2]: 2 to 3 od; absorbance at 450 nm (OD450) [7]: ≥ 3 od; absorbance at 450 nm (OD450) [14]: ≥ 3 od; absorbance at 450 nm (OD450) [15]: ≥ 3 od
